By Kd is commonly meant the free concentration of one partner at which half of the binding sites on the other are occupied at equilibrium, for simple one-to-one binding. The EC50 is the concentration that produces a half-maximal response. A high value points to a less potent agent.

Assay [1] deals with T1, cynomolgus uPAR (recombinant) (cynomolgus monkey, UniProt Q9GK78 23-303, limits assumed).
T1 construct: also called cyno uPAR; AF647-cyno uPAR
T1 sequence (looked up): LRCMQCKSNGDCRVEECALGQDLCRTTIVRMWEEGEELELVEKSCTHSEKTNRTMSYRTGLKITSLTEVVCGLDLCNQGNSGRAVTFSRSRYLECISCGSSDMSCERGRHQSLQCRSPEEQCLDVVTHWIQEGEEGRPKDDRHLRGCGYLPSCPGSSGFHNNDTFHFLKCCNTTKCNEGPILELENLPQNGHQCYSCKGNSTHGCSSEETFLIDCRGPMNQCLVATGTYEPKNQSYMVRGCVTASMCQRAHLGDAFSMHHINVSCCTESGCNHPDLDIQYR
Briefly: BLI (Octet HTX). As for the experimental part: (§1) Kinetic constant ranges for Octet HTX were between 1 mM to 10 pM.

Assay [2] has as its target T2, human uPAR (recombinant protein used in ELISA and BLI) (human, UniProt Q03405 23-305, limits assumed).
T2 construct: Whole entry named; also called biotinylated human uPAR
The assay can be described thus: BLI (Octet HTX). The protocol:
as §1
A general note: BLI is a label-free optical method that tracks binding on a fibre tip over time.

In assay [3] the target is T3, human uPAR displayed on the surface of MDA-MB-231 cells (human, UniProt Q03405 23-305).
T3 construct: whole, on cells; also called cell-surface uPAR; cellular uPAR
Briefly: flow cytometry on MDA-MB-231 cells. (In general: In flow cytometry, cells or beads pass a laser one at a time.)

Where only a bound is given, the exact number is not on record here.

T2 sequence (Q03405 23-305 limits assumed): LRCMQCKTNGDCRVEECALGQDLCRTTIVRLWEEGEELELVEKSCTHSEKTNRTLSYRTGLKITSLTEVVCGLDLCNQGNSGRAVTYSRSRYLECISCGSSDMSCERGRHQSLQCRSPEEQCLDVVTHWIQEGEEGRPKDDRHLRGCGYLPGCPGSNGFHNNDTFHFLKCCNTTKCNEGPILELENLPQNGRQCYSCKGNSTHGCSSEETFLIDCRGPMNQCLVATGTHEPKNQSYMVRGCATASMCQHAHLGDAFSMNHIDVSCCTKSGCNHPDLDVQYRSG
T3 sequence (Q03405 23-305): as the sequence (Q03405 23-305 limits assumed) above

B1: 3159 HC1 + LC3 (humanized) (antibody, V domains shown)
VH: QVTLRESGPALVKPTQTLTLTCTLSGFSLSTSGMGVSWIRQPPGKALEWLAHIYWDDDKRYSTSLKTRLTISKDASKDQVVLTMTNMDTVDTATYYCGRRVRNYFSGTSYWYFDVWGTGTLVTVSS
VL: DIVMTQSPLSLPVTPGEPASISCRSSQNILHRTGNTYLDWYLQKPGQSPQLLIYKVSNRFSGVPDRFSGSGSGTDFTLKISRVEAEDVGVYYCFQGSYVPFTFGQGTKLEIK
notes: detected with anti-human Fc antibody
For B1, the Kd came to 162 nM in assay [1] and 5.58 nM in assay [2]. In assay [3], a half-maximal effect (EC50) was put at 0.27 µg/mL.

B2: 3159 HC3 + LC1 (humanized) (antibody, V domains shown)
VH: QITLKESGPTLVKPTQTLTLTCTLSGFSLSTSGMGVSWIRQPPGKALEWLAHIYWDDDKRYNPSLKSRLTITKDASKDQVVLTMTNMDTVDTATYYCGRRVRNYFSGTSYWYFDVWGTGTLVTVSS
VL: DIVMTQTPLSLSVTPGQPASISCKSSQNILHRTGNTYLEWYLQKPGQPPQLLIYKVSNRFSGVPDRFSGSGSGTDFTLKISRVEAEDVGVYYCFQGSYVPFTFGQGTKLEIK
notes: as for B1
Consider B2, for which the results for the Kd in assay [1] and in assay [2] were 202 nM and less than 0.01 nM, respectively. The EC50 in assay [3] stood at 0.488 µg/mL.

B3: 3159 HC2 + LC2 (humanized) (antibody, V domains shown)
VH: QVTLKESGPVLVKPTETLTLTCTVSGFSLSTSGMGVSWIRQPPGKGLEWLAHIYWDDDKRYSPSLKSRLTISKDASKDQVVLTMTNMDTVDTATYYCGRRVRNYFSGTSYWYFDVWGTGTLVTVSS
VL: DVVMTQSPLSLPVTLGQPASISCRSSQNILHRTGNTYLEWFQQRPGQSPRLLIYKVSNRFSGVPDRFSGSGSGTDFTLKISRVEAEDVGVYYCFQGSYVPFTFGQGTKLEIK
notes: as for B1
With B3, the Kd was 404 nM in assay [1] and less than 0.01 nM in assay [2]. In assay [3], this molecule registered an EC50 of 0.32 µg/mL.

B4: 3159 HC3 + LC2 (humanized) (antibody, V domains shown)
VH: QITLKESGPTLVKPTQTLTLTCTLSGFSLSTSGMGVSWIRQPPGKALEWLAHIYWDDDKRYNPSLKSRLTITKDASKDQVVLTMTNMDTVDTATYYCGRRVRNYFSGTSYWYFDVWGTGTLVTVSS
VL: DVVMTQSPLSLPVTLGQPASISCRSSQNILHRTGNTYLEWFQQRPGQSPRLLIYKVSNRFSGVPDRFSGSGSGTDFTLKISRVEAEDVGVYYCFQGSYVPFTFGQGTKLEIK
notes: as for B1
As to B4, the Kd in assay [1] was determined as 2240 nM; in assay [2], 4.66 nM. In addition, the EC50 in assay [3] is 0.214 µg/mL.

B5: 3159 HC2 + LC1 (humanized) (antibody, V domains shown)
VH: QVTLKESGPVLVKPTETLTLTCTVSGFSLSTSGMGVSWIRQPPGKGLEWLAHIYWDDDKRYSPSLKSRLTISKDASKDQVVLTMTNMDTVDTATYYCGRRVRNYFSGTSYWYFDVWGTGTLVTVSS
VL: DIVMTQTPLSLSVTPGQPASISCKSSQNILHRTGNTYLEWYLQKPGQPPQLLIYKVSNRFSGVPDRFSGSGSGTDFTLKISRVEAEDVGVYYCFQGSYVPFTFGQGTKLEIK
notes: as for B1
Turning to B5, the Kd in assay [1] was 41.1 nM; in assay [2], less than 0.01 nM. The EC50 in assay [3] stood at 0.379 µg/mL.

B6: 3159 HC1 + LC1 (humanized) (antibody, V domains shown)
VH: QVTLRESGPALVKPTQTLTLTCTLSGFSLSTSGMGVSWIRQPPGKALEWLAHIYWDDDKRYSTSLKTRLTISKDASKDQVVLTMTNMDTVDTATYYCGRRVRNYFSGTSYWYFDVWGTGTLVTVSS
VL: DIVMTQTPLSLSVTPGQPASISCKSSQNILHRTGNTYLEWYLQKPGQPPQLLIYKVSNRFSGVPDRFSGSGSGTDFTLKISRVEAEDVGVYYCFQGSYVPFTFGQGTKLEIK
notes: as for B1
For the molecule B6, the Kd in assay [1] came out at 556 nM; in assay [2], 6.79 nM. The EC50 in assay [3] came to 0.187 µg/mL.

B7: 3159 HC3 + LC3 (humanized) (antibody, V domains shown)
VH: QITLKESGPTLVKPTQTLTLTCTLSGFSLSTSGMGVSWIRQPPGKALEWLAHIYWDDDKRYNPSLKSRLTITKDASKDQVVLTMTNMDTVDTATYYCGRRVRNYFSGTSYWYFDVWGTGTLVTVSS
VL: DIVMTQSPLSLPVTPGEPASISCRSSQNILHRTGNTYLDWYLQKPGQSPQLLIYKVSNRFSGVPDRFSGSGSGTDFTLKISRVEAEDVGVYYCFQGSYVPFTFGQGTKLEIK
notes: as for B1
As for B7, the Kd came to 58.5 nM in assay [1] and 7.39 nM in assay [2]. In addition, the EC50 in assay [3] was found to be 0.185 µg/mL.

B8: 3159 HC1 + LC2 (humanized) (antibody, V domains shown)
VH: QVTLRESGPALVKPTQTLTLTCTLSGFSLSTSGMGVSWIRQPPGKALEWLAHIYWDDDKRYSTSLKTRLTISKDASKDQVVLTMTNMDTVDTATYYCGRRVRNYFSGTSYWYFDVWGTGTLVTVSS
VL: DVVMTQSPLSLPVTLGQPASISCRSSQNILHRTGNTYLEWFQQRPGQSPRLLIYKVSNRFSGVPDRFSGSGSGTDFTLKISRVEAEDVGVYYCFQGSYVPFTFGQGTKLEIK
notes: as for B1
For B8, the results for the Kd in assay [1] and in assay [2] were 5870 nM and less than 0.01 nM, respectively. Besides, the EC50 in assay [3] was 0.518 µg/mL.

B9: 3159 HC2 + LC3 (humanized) (antibody, V domains shown)
VH: QVTLKESGPVLVKPTETLTLTCTVSGFSLSTSGMGVSWIRQPPGKGLEWLAHIYWDDDKRYSPSLKSRLTISKDASKDQVVLTMTNMDTVDTATYYCGRRVRNYFSGTSYWYFDVWGTGTLVTVSS
VL: DIVMTQSPLSLPVTPGEPASISCRSSQNILHRTGNTYLDWYLQKPGQSPQLLIYKVSNRFSGVPDRFSGSGSGTDFTLKISRVEAEDVGVYYCFQGSYVPFTFGQGTKLEIK
notes: as for B1
For the molecule B9, the Kd is 255 nM in assay [1] and less than 0.01 nM in assay [2]. Further, in assay [3], a half-maximal effect (EC50) was put at 0.205 µg/mL.

B10: 11857 HC1 + LC1 (humanized) (antibody, V domains shown)
VH: EVQLVQSGAEVKKPGATVKISCKVSGYTFTDYYMNWVQQAPGKSLEWMGNINPNNGGTDYNQKFQGRVTITADKSTSTAYMELSSLRSEDTAVYYCARSYGSRFPYWGLGTLVTVSS
VL: DIQMTQSPSSLSASVGDRVTITCRASQDITNYLSWYQQKPGGTVKLLLYYTAVLQSGFPSRFSGSGSGADYTLTISSLQPEDFATYYCQQGHTLPWTFGGGTKVEIK
notes: as for B1
As for B10, the results for the Kd in assay [1] and in assay [2] were 69.7 nM and 127 nM, respectively. Moreover, the EC50 in assay [3] was 0.695 µg/mL.

B11: 11857 HC2 + LC1 (humanized) (antibody, V domains shown)
VH: EVQLVQSGAEVKKPGASVKVSCKASGYTFTDYYMNWVRQAPGKSLEWMGNINPNNGGTDYSQKFQGRVTITVDTSASTAYMELSSLRSEDTAVYYCARSYGSRFPYWGLGTLVTVSS
VL: DIQMTQSPSSLSASVGDRVTITCRASQDITNYLSWYQQKPGGTVKLLLYYTAVLQSGFPSRFSGSGSGADYTLTISSLQPEDFATYYCQQGHTLPWTFGGGTKVEIK
notes: as for B1
On to B11, for which the Kd was found to be 307 nM in assay [1] and 125 nM in assay [2]. For the same molecule, in assay [3], it took 0.432 µg/mL to reach a half-maximal effect (EC50).

B12: 11857 HC1 + LC3 (humanized) (antibody, V domains shown)
VH: EVQLVQSGAEVKKPGATVKISCKVSGYTFTDYYMNWVQQAPGKSLEWMGNINPNNGGTDYNQKFQGRVTITADKSTSTAYMELSSLRSEDTAVYYCARSYGSRFPYWGLGTLVTVSS
VL: DIQMTQSPSSLSASVGDRVTITCRASQDITNYLSWFQQKPGGTVKLLIYYTAVLQSGFPSRFSGSGSGADFTLTISSLQPEDFATYYCQQGHTLPWTFGGGTKVEIK
notes: as for B1
B12 gave an EC50 in assay [3] of 1.21 µg/mL.

B13: 11857 HC1 + LC2 (humanized) (antibody, V domains shown)
VH: EVQLVQSGAEVKKPGATVKISCKVSGYTFTDYYMNWVQQAPGKSLEWMGNINPNNGGTDYNQKFQGRVTITADKSTSTAYMELSSLRSEDTAVYYCARSYGSRFPYWGLGTLVTVSS
VL: DIQMTQSPSSLSASVGDRVTITCRASQDITNYLSWYQQKPGGTVKLLIFYTAVLQSGFPSRFSGSGSGADFTLTISSLQPEDVATYYCQQGHTLPWTFGGGTKVEIK
notes: as for B1
In the case of B13, the Kd stood at 32.4 nM in assay [1] and 53.4 nM in assay [2]. In assay [3], the EC50 was found to be 0.223 µg/mL.

B14: 11857 HC3 + LC1 (humanized) (antibody, V domains shown)
VH: EVQLVQSGAEVKKPGASVKVSCKASGYTFTDYYMNWVRQAPGKSLEWMGNINPNNGGTDYNQKFQGRVTLTVDTSISTAYMELSRLRSDDTVVYYCARSYGSRFPYWGLGTLVTVSS
VL: DIQMTQSPSSLSASVGDRVTITCRASQDITNYLSWYQQKPGGTVKLLLYYTAVLQSGFPSRFSGSGSGADYTLTISSLQPEDFATYYCQQGHTLPWTFGGGTKVEIK
notes: as for B1
With B14, the Kd in assay [1] worked out at 83.9 nM; in assay [2], 147 nM. The EC50 in assay [3] came out at 0.304 µg/mL.

B15: 11857 HC2 + LC2 (humanized) (antibody, V domains shown)
VH: EVQLVQSGAEVKKPGASVKVSCKASGYTFTDYYMNWVRQAPGKSLEWMGNINPNNGGTDYSQKFQGRVTITVDTSASTAYMELSSLRSEDTAVYYCARSYGSRFPYWGLGTLVTVSS
VL: DIQMTQSPSSLSASVGDRVTITCRASQDITNYLSWYQQKPGGTVKLLIFYTAVLQSGFPSRFSGSGSGADFTLTISSLQPEDVATYYCQQGHTLPWTFGGGTKVEIK
notes: as for B1
On to B15, for which the Kd in assay [1] was 59.5 nM; in assay [2] it was 45.7 nM. In addition, the EC50 in assay [3] was 0.212 µg/mL.

B16: 11857 HC3 + LC2 (humanized) (antibody, V domains shown)
VH: EVQLVQSGAEVKKPGASVKVSCKASGYTFTDYYMNWVRQAPGKSLEWMGNINPNNGGTDYNQKFQGRVTLTVDTSISTAYMELSRLRSDDTVVYYCARSYGSRFPYWGLGTLVTVSS
VL: DIQMTQSPSSLSASVGDRVTITCRASQDITNYLSWYQQKPGGTVKLLIFYTAVLQSGFPSRFSGSGSGADFTLTISSLQPEDVATYYCQQGHTLPWTFGGGTKVEIK
With B16, the Kd worked out at 59.6 nM in assay [1] and 75.6 nM in assay [2].

These data come from US20260116983A1 (University of California, published 2026).
